Assay [1] concerns the target Recombinant His-tagged full-length human ApoE4 (human, UniProt P02649 19-317, Cys112 → Arg112). Nature of the assay: SPR. On the technique in general: In SPR one partner is held on a chip, and binding of the other changes the refractive index at the surface.
In assay [2] the target is T1, Recombinant His-tagged full-length human ApoE4 (Homo sapiens, ApoE4 (C112R mature), UniProt P02649, Cys112 → Arg112).
T1 construct: Apolipoprotein E, human, isoform E4; their rows are written on this molecule; source: E. coli-derived, His-tagged, fee-for-service by Innovagen
Nature of the assay: SPR; Biacore 3000, PBS; the Fab injected at various concentrations (methods; the legend says ApoE4 over immobilised Fab); contact 120 s, dissociation 240 s, 30 μL/min; KD from ka and kd. The note with it: both partners purified.
Target sequence in this assay (P02649 other isoform, or with tags, fused parts or gaps Cys112 → Arg112 | Cys112 → Arg112): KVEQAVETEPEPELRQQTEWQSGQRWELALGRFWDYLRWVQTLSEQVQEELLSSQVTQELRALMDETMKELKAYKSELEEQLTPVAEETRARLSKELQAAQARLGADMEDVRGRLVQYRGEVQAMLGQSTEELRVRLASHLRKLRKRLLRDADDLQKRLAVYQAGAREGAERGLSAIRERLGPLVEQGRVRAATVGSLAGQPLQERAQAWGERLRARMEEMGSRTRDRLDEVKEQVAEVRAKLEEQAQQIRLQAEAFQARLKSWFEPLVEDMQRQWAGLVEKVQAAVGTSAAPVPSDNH

Assay [3] concerns the target T2, Recombinant His-tagged full-length human ApoE3 (Homo sapiens, ApoE3, UniProt P02649).
T2 construct: Apolipoprotein E, human, isoform E3 (C112, R158); ELISA used the Innovagen protein; their rows are written on this molecule; A recombinant 'full-length' ApoE from E. coli is probably the mature protein without signal peptide (surmise); also called ApoE3 FL; WT ApoE; source: E. coli-derived, His-tagged, fee-for-service by Innovagen
Nature of the assay: ELISA; ApoE peptide or full-length protein coated on the plate; serial dilutions of hybridoma cell supernatants; TBS with 2 mM CaCl2, 3% BSA block. The note with it: one partner purified.
Target sequence in this assay (P02649 19-317): as the sequence (P02649 other isoform, or with tags, fused parts or gaps Cys112 → Arg112 | Cys112 → Arg112) above, with R112C counted along it

The target of assay [4] is T3, ApoE3 in post mortem human brain tissue (APOEε3/ε3 PSEN1 E280A carrier) (Homo sapiens, ApoE3, UniProt P02649).
T3 construct: Apolipoprotein E, human, isoform E3; source: endogenous, post mortem human middle temporal gyrus, formalin-fixed paraffin-embedded sections
Briefly: immunostaining of cells or tissue; formalin-fixed paraffin-embedded middle temporal gyrus sections of PSEN1 E280A carriers of different APOE genotypes; 1H4 0.012 μg/μL, 7C11 0.041 μg/μL, 19G 0.072 μg/μL overnight 4°C; HRP detection; not quantified. The note with it: one partner purified.

Assay [5] addresses T2, Recombinant His-tagged full-length …. Nature of the assay: ELISA; ApoE variants or peptides coated (0.0025 μg/μL in TBS with 2 mM CaCl2, 16 h 4°C); serial dilutions of purified monoclonal antibodies (0.01 to 6.7 nM in the isoform panel), 2 h RT or 16 h 4°C; HRP secondary. The note with it: both partners purified.
Target sequence in this assay (P02649 19-317): as the sequence (P02649 other isoform, or with tags, fused parts or gaps Cys112 → Arg112 | Cys112 → Arg112) above, with R112C counted along it
Assay [6] concerns the target T1, Recombinant His-tagged full-length …. Briefly: BLI; OCTET RED 96, 25°C; 7C11ch.IgG1 loaded on anti-human IgG Fc (AHC) sensors at 20 μg/mL; ApoE4 in solution (200 nM), PBS + 0.1% BSA. The note with it: both partners purified.
The target in assay [7] is T4, Recombinant His-tagged full-length human ApoE2 (Homo sapiens, ApoE2 (R158C mature), UniProt P02649, Arg158 → Cys158).
T4 construct: Apolipoprotein E, human, isoform E2; its rows are written on this molecule; source: E. coli-derived, His-tagged, fee-for-service by Innovagen
Briefly: BLI; OCTET RED 96, 25°C; ApoE variants immobilised on anti-penta-His (HS1K) sensors; 7C11.mAb in solution, titrated. The note with it: both partners purified.
Target sequence in this assay (P02649 other isoform, or with tags, fused parts or gaps Arg158 → Cys158 | Arg158 → Cys158): as the sequence (P02649 other isoform, or with tags, fused parts or gaps Cys112 → Arg112 | Cys112 → Arg112) above, with R112C, R158C counted along it

Assay [8] has as its target T2, Recombinant His-tagged full-length …. Described as above. The following applies: both partners purified.
Target sequence in this assay (P02649 19-317): as the sequence (P02649 other isoform, or with tags, fused parts or gaps Cys112 → Arg112 | Cys112 → Arg112) above, with R112C counted along it
Assay [9] deals with T1, Recombinant His-tagged full-length …. The assay is described as above. The following applies: both partners purified.
Target sequence in this assay (P02649 other isoform, or with tags, fused parts or gaps Cys112 → Arg112 | Cys112 → Arg112): as the sequence (P02649 other isoform, or with tags, fused parts or gaps Cys112 → Arg112 | Cys112 → Arg112) above
Assay [10] concerns the target T4, Recombinant His-tagged full-length …. Nature of the assay: BLI; OCTET RED 96, 25°C; msIgG1 7C11.mAb loaded on anti-mouse Fc (AMC) sensors at 20 μg/mL; ApoE variant in solution (200 nM), PBS + 0.1% BSA. The note with it: both partners purified. (In general: In BLI a coated tip is dipped into the sample, and binding shifts an interference pattern.)
The target in assay [11] is T2, Recombinant His-tagged full-length …. Described as above. The note with it: both partners purified.
Assay [12] concerns the target T1, Recombinant His-tagged full-length …. Described as above. The note with it: both partners purified.

We go through five molecules from publication PMC10916992, “APOE Christchurch‐mimetic therapeutic antibody reduces APOE‐mediated toxicity and tau phosphorylation” (Alzheimer's & Dementia, 2023).

What is called Kd is the equilibrium constant for the complex coming apart.

Chain of Recombinant His-tagged full-length human ApoE4 (human, UniProt P02649 19-317, Cys112 → Arg112) (P02649 other isoform, or with tags, fused parts or gaps Cys112 → Arg112): as the sequence (P02649 other isoform, or with tags, fused parts or gaps Cys112 → Arg112 | Cys112 → Arg112) above
T3 sequence (P02649 19-317, stated change not applied): as the sequence (P02649 other isoform, or with tags, fused parts or gaps Cys112 → Arg112 | Cys112 → Arg112) above, with R112C counted along it

B1: 7C11-Fab (recombinant Fab fragment of the 7C11.chIgG1 antibody) (Fab, V domains shown)
VH: EVKLVESGGGLVQPGGSLKLSCAASGFTFSRYTMSWVRQTPEKRLEWVAKIRNVGGITYYPDTVKGRFTISRDNAKNTLYLQMSSLKSEDTAMYYCARHYYGSEDYFDYWGQGTTLTVSS
VL: DNVLTQSPASLAVSLGQRATISCKASQSVDYDGDSYMNWYQQKPGQPPKVFIYAASNLESGIPARFSGSGSGTNFTLNIHPVEEEDAATYYCQQSNEDPWTFGGGTKLEIK
notes: VH CDR-1 of 7C11; VH CDR-2 of 7C11; VH CDR-3 of 7C11; VL CDR-1 of 7C11; VL CDR-2 of 7C11; VL CDR-3 of 7C11; also called Fab-7C11; 7C11.IgGFab; source: recombinant, purified, fee-for-service by Creative BioStructure
As to B1, the results for the Kd in assay [1] and in assay [2] were 25.1 nM and ~10 nM, respectively.

B2: 25F.mAb (mouse monoclonal anti-ApoE3Ch antibody, clone 25F1-2) (antibody, V domains shown)
VH: EVQLQQSGAELVRPGALVKWSCKASGFNIKDYHIHWVKQRPEQGLDWIGWIDPEIDKTLYDPKFQGKARITADTSSNTAYLQLSSLTSEDTAVYYCARGTARASFDYWGQGTTLTVSS
VL: DIVLTQSPASLAVSLGQRATISCKASQSVDYDGDTYMNWYQQKPGQPPKLLIYTASNLESGIPARFSGSGSGTDFTLNIHPVEEVDAATYYCQQSNEDPWTFGGGTKLEIK
notes: VH CDR-1; VH CDR-2; VH CDR-3; VL CDR-1; VL CDR-2; VL CDR-3; Raised against the ApoECh peptide; also called 25F.Ab; source: hybridoma supernatant (25F.Ab) and purified monoclonal antibody (25F.mAb), fee-for-service by Innovagen
Consider B2, for which the binding result in [3] is given as “binds”.

B3: 1H4.mAb (mouse monoclonal anti-ApoE antibody) (antibody, V domains shown)
VH: EVKLVESGGGVVQPGGSLKLSCAASGFTFSSYTMSWVRQTPEKRLEWVAKIRNGGGITYYLDTLKGRFTISRDNAKNTLYLQMSSLKSEDTAIYFCARHYYGSEDYFDYWGQGTTLTVSS
VL: DNVLTQSPASLAVSLGQRATISCKASQSVDYDGDSYMNWYQQKPGQPPKVFIYAASNLESGIPARFSGSGSGTDFTLNIHPVEEEDAATYYCQQSNEDPWTFGGGTKLEIK
notes: VH CDR-1; VH CDR-2; VH CDR-3; VL CDR-1; VL CDR-2; VL CDR-3; Raised against the ApoE peptide; also called 1H4.Ab; source: hybridoma supernatant (1H4.Ab) and purified monoclonal antibody (1H4.mAb), fee-for-service by Innovagen
For B3, the binding result in assay [4] and in [5] was “binds” each time.

B4: 7C11.chIgG1 (chimeric mouse-human IgG1 7C11 antibody) (antibody, V domains shown)
VH: EVKLVESGGGLVQPGGSLKLSCAASGFTFSRYTMSWVRQTPEKRLEWVAKIRNVGGITYYPDTVKGRFTISRDNAKNTLYLQMSSLKSEDTAMYYCARHYYGSEDYFDYWGQGTTLTVSS
VL: DNVLTQSPASLAVSLGQRATISCKASQSVDYDGDSYMNWYQQKPGQPPKVFIYAASNLESGIPARFSGSGSGTNFTLNIHPVEEEDAATYYCQQSNEDPWTFGGGTKLEIK
notes: VH CDR-1 of 7C11; VH CDR-2 of 7C11; VH CDR-3 of 7C11; VL CDR-1 of 7C11; VL CDR-2 of 7C11; VL CDR-3 of 7C11; Human IgG1 constant regions; also called chimeric 7C11 antibody; 7C11 human chimeric antibody; source: human chimeric antibody produced as fee-for-service by Innovagen
For B4, the Kd in [6] is < 0.001 nM.

B5: 7C11.mAb (mouse monoclonal anti-ApoE antibody, msIgG1) (antibody, V domains shown)
VH: EVKLVESGGGLVQPGGSLKLSCAASGFTFSRYTMSWVRQTPEKRLEWVAKIRNVGGITYYPDTVKGRFTISRDNAKNTLYLQMSSLKSEDTAMYYCARHYYGSEDYFDYWGQGTTLTVSS
VL: DNVLTQSPASLAVSLGQRATISCKASQSVDYDGDSYMNWYQQKPGQPPKVFIYAASNLESGIPARFSGSGSGTNFTLNIHPVEEEDAATYYCQQSNEDPWTFGGGTKLEIK
notes: VH CDR-1; VH CDR-2; VH CDR-3; VL CDR-1; VL CDR-2; VL CDR-3; Mouse IgG1; also called 7C11.Ab; ms.7C11-Ab; source: hybridoma supernatant (7C11.Ab) and purified monoclonal antibody (7C11.mAb), fee-for-service by Innovagen
With B5, the Kd in assay [7] is 7.41 nM; in [8], 16.8 nM; in assay [9], 6.07 nM; in [10], 28.1 nM; in [11], 5.14 nM; in [12], < 0.001 nM.
